Assays:
[1] = Ex vivo organ distribution in B16F10 tumor-bearing mice; design: species or system C57BL/6 mice; settings: mouse, iv
Description: (§1) To accomplish post-imaging organ distribution investigations, 9.36 ± 0.67, 6.34 ± 1.07 and 2.39 ± 0.19 MBq of ^68Ga-labeled-^177Lu-labeled-and ^205/206Bi-labeled […]-based probes were iv. Injected, respectively, into the lateral tail vein of both the tumor-naive and the melanoma tumor-carrying experimental mice. Ninety-minutes ([^68Ga]Ga-DOTA-[…]-DOTA-[…]; [^205/206Bi]Bi-DOTA-[…]; [^205/206Bi]Bi-DOTA-[…]) and 24 h ([^177Lu]Lu-DOTA-[…]; [^177Lu]Lu-DOTA-[…]) post tracer administration, mice were sacrificed under Forane-induced inhalation anesthesia. Then, the tumor, the blood, and selected organs and tissues were removed, weighed wet and measured for radioactivity applying a calibrated gamma counter (Perkin-Elmer Packard 406 Cobra, Waltham, MA, USA). The counts per minute (CPM) figures for each sample were converted to percent of administered dose per gram of tissue (%ID/g).

in vivo = assay: in vivo; design: species or system C57BL/6 mice; settings: C57BL/6, mouse, iv, total radioactivity
Description: At 9 ± 1 days post tumor implantation, at an average tumor bulk of approximately 120 mm^3, the tumor-naive and the B16F10 tumor-bearing mice were intravenously (iv.) injected with 9.36 ± 0.67 MBq of [^68Ga]Ga-DOTA-NAPamide or [^68Ga]Ga-DOTA-IPB-NAPamide via the lateral tail vein. After a 90-min-long tracer distribution time, the study mice were subjected to whole-body static PET acquisition (10 min scans at each bed position) under isoflurane-induced anesthesia (AbbVie, Budapest, Hungary; OGYI-T-1414/01) applying a preclinical MiniPET-II small animal PET device (Division of Nuclear Medicine and Translational Imaging, Department of Medical Imaging, Faculty of Medicine, University of Debrecen).
Three-dimensional ordered-subsets expectation-maximization algorithm (3D OSEM) was used for PET image reconstruction. Three-dimensional ellipsoidal volume of interests (VOI) were manually placed around the border of the organ/tissue activity to calculate their radiotracer concentration. The radiopharmaceutical accumulation was presented as standardized uptake values (SUVs). The following formula was applied for the determination of the SUV parameter:SUV (g/mL) = [VOI activity (Bq/mL)]/[administered activity (Bq)/animal weight (g)]

[2] = assay type: physicochemical
Description: After the dilution of the purified radiotracers ([^68Ga]Ga-DOTA-[…]-DOTA-[…], [^205/206Bi]Bi-DOTA-[…], [^205/206Bi]Bi-DOTA-[…], [^177Lu]Lu-DOTA-[…], [^177Lu]Lu-DOTA-[…]) (50 μL, 1-3 MBq) with 450 μL water, 500 μL n-octanol was added to each sample. […] The activity of the samples from n-octanol phase (20 μL) and aqueous phase (20 μL) was analyzed with gamma counter. The procedure was performed in triplicate. For [^68Ga]Ga-DOTA-[…]-DOTA-[…], [^205/206Bi]Bi-DOTA-[…], [^205/206Bi]Bi-DOTA-[…], [^177Lu]Lu-DOTA-[…], and for [^177Lu]Lu-DOTA-[…] the logP values were -3.46, -2.12, -3.65, -2.32, -2.6, 1.26, respectively.

[3] = system: B16F10 tumor-bearing mice; assay: Ex vivo organ distribution in B16F10 tumor-bearing mice; design: species or system C57BL/6 mice; settings: mouse, iv
Description: as §1

For CCCC[C@H](NC(C)=O)C(=O)N[C@@H](CC(=O)O)C(=O)N[C@@H](Cc1c[nH]cn1)C(=O)N[C@H](Cc1ccccc1)C(=O)N[C@@H](CCCNC(=N)N)C(=O)N[C@@H](Cc1c[nH]c2ccccc12)C(=O)NCC(=O)N[C@@H](CCCCNC(=O)[C@H](CCCCNC(=O)CCCc1ccc(I)cc1)NC(=O)CN1CCN(CC(=O)O)CCN(CC(=O)O)CCN(CC(=O)O)CC1)C(N)=O [[^68Ga]Ga-DOTA-IPB-NAPamide, metal not drawn], the tissue uptake at 1.5 h ([1]; B16-F10 tumor uptake) was 5.06 ± 1.08 %ID/g, the tissue uptake at 1.5 h ([1]; blood uptake) was 14.2 ± 1.87 %ID/g and the tissue uptake at 1.5 h ([1]; brain uptake) was 0.28 ± 0.02 %ID/g. The tissue uptake at 1.5 h ([1]; fat uptake) was 2.02 ± 0.65 %ID/g, the tissue uptake at 1.5 h ([1]; heart uptake) was 5.14 ± 0.72 %ID/g and the tissue uptake at 1.5 h ([1]; kidney uptake) was 4.57 ± 0.88 %ID/g. For the same compound, the tissue uptake at 1.5 h ([1]; large intestine uptake) was 0.92 ± 1.25 %ID/g, the tissue uptake at 1.5 h ([1]; liver uptake) was 2.64 ± 0.11 %ID/g and the tissue uptake at 1.5 h ([1]; lung uptake) was 6.32 ± 0.91 %ID/g. For the same compound, the tissue uptake at 1.5 h ([1]; muscle uptake) was 1.01 ± 0.18 %ID/g, the tissue uptake at 1.5 h ([1]; small intestine uptake) was 2.41 ± 0.03 %ID/g and the tissue uptake at 1.5 h ([1]; spleen uptake) was 2.37 ± 0.25 %ID/g. The tissue uptake at 1.5 h ([1]; stomach uptake) was 2.97 ± 1.38 %ID/g and the SUV at 1.5 h (in vivo) was 1.31 ± 0.24 SUV.

Compound CCCC[C@H](NC(C)=O)C(=O)N[C@@H](CC(=O)O)C(=O)N[C@@H](Cc1c[nH]cn1)C(=O)N[C@H](Cc1ccccc1)C(=O)N[C@@H](CCCNC(=N)N)C(=O)N[C@@H](Cc1c[nH]c2ccccc12)C(=O)NCC(=O)N[C@@H](CCCCNC(=O)[C@H](CCCCNC(=O)CCCc1ccc(I)cc1)NC(=O)CN1CCN(CC(=O)O)CCN(CC(=O)O)CCN(CC(=O)O)CC1)C(N)=O [[^68Ga]Ga-DOTA-IPB-NAPamide] [metal not drawn] has a logP [2] of −2.12.

For CCCC[C@H](NC(C)=O)C(=O)N[C@@H](CC(=O)O)C(=O)N[C@@H](Cc1c[nH]cn1)C(=O)N[C@H](Cc1ccccc1)C(=O)N[C@@H](CCCNC(=N)N)C(=O)N[C@@H](Cc1c[nH]c2ccccc12)C(=O)NCC(=O)N[C@@H](CCCCNC(=O)CN1CCN(CC(=O)O)CCN(CC(=O)O)CCN(CC(=O)O)CC1)C(N)=O [[^68Ga]Ga-DOTA-NAPamide, metal not drawn, reference compound], the tissue uptake at 1.5 h ([1]; blood uptake) was 0.35 ± 0.1 %ID/g, the tissue uptake at 1.5 h ([1]; brain uptake) was 0.03 ± 0.01 %ID/g and the tissue uptake at 1.5 h ([1]; heart uptake) was 0.1 ± 0.06 %ID/g. For the same compound, the tissue uptake at 1.5 h ([1]; large intestine uptake) was 0.3 ± 0.01 %ID/g, the tissue uptake at 1.5 h ([1]; lung uptake) was 0.33 ± 0.06 %ID/g and the tissue uptake at 1.5 h ([1]; muscle uptake) was 0.08 ± 0.02 %ID/g. It also gave a tissue uptake at 1.5 h ([1]; small intestine uptake) of 0.35 ± 0.13 %ID/g, a tissue uptake at 1.5 h ([1]; stomach uptake) of 0.24 ± 0.09 %ID/g and an SUV at 1.5 h (in vivo) of 0.43 ± 0.09 SUV.

CCCC[C@H](NC(C)=O)C(=O)N[C@@H](CC(=O)O)C(=O)N[C@@H](Cc1c[nH]cn1)C(=O)N[C@H](Cc1ccccc1)C(=O)N[C@@H](CCCNC(=N)N)C(=O)N[C@@H](Cc1c[nH]c2ccccc12)C(=O)NCC(=O)N[C@@H](CCCCNC(=O)CN1CCN(CC(=O)O)CCN(CC(=O)O)CCN(CC(=O)O)CC1)C(N)=O [[^68Ga]Ga-DOTA-NAPamide] [metal not drawn, reference compound] showed a logP [2] of −3.46, a B16-F10 tumor uptake ([3]; 1.5 h) of 1.18 ± 0.27 %ID/g and a fat uptake ([3]; 1.5 h) of 0.16 ± 0.03 %ID/g. For the same compound, the kidney uptake ([3]; 1.5 h) was 3.07 ± 0.35 %ID/g, the liver uptake ([3]; 1.5 h) was 0.31 ± 0.08 %ID/g and the spleen uptake ([3]; 1.5 h) was 0.15 ± 0.02 %ID/g.

Compound CCCC[C@H](NC(C)=O)C(=O)N[C@@H](CC(=O)O)C(=O)N[C@@H](Cc1c[nH]cn1)C(=O)N[C@H](Cc1ccccc1)C(=O)N[C@@H](CCCNC(=N)N)C(=O)N[C@@H](Cc1c[nH]c2ccccc12)C(=O)NCC(=O)N[C@@H](CCCCNC(=O)[C@H](CCCCNC(=O)CCCc1ccc(I)cc1)NC(=O)CN1CCN(CC(=O)O)CCN(CC(=O)O)CCN(CC(=O)O)CC1)C(N)=O [[^177Lu]Lu-DOTA-IPB-NAPamide, metal not drawn] has a tissue uptake at 24 h ([1]; B16-F10 tumor uptake) of 4.16 ± 1.86 %ID/g, a tissue uptake at 24 h ([1]; blood uptake) of 3.71 ± 0.73 %ID/g and a tissue uptake at 24 h ([1]; brain uptake) of 0.08 ± 0.01 %ID/g. It also gave a tissue uptake at 24 h ([1]; fat uptake) of 0.67 ± 0.34 %ID/g, a tissue uptake at 24 h ([1]; heart uptake) of 1.3 ± 0.12 %ID/g and a tissue uptake at 24 h ([1]; kidney uptake) of 5.58 ± 1.59 %ID/g. For the same compound, the tissue uptake at 24 h ([1]; large intestine uptake) was 0.61 ± 0.11 %ID/g, the tissue uptake at 24 h ([1]; liver uptake) was 1.97 ± 0.13 %ID/g and the tissue uptake at 24 h ([1]; lung uptake) was 2.5 ± 0.24 %ID/g. It also gave a tissue uptake at 24 h ([1]; muscle uptake) of 0.33 ± 0.07 %ID/g, a tissue uptake at 24 h ([1]; small intestine uptake) of 0.6 ± 0.03 %ID/g and a tissue uptake at 24 h ([1]; spleen uptake) of 1.32 ± 0.2 %ID/g. It also gave a tissue uptake at 24 h ([1]; stomach uptake) of 0.69 ± 0.11 %ID/g.

Work on CCCC[C@H](NC(C)=O)C(=O)N[C@@H](CC(=O)O)C(=O)N[C@@H](Cc1c[nH]cn1)C(=O)N[C@H](Cc1ccccc1)C(=O)N[C@@H](CCCNC(=N)N)C(=O)N[C@@H](Cc1c[nH]c2ccccc12)C(=O)NCC(=O)N[C@@H](CCCCNC(=O)CN1CCN(CC(=O)O)CCN(CC(=O)O)CCN(CC(=O)O)CC1)C(N)=O [[^177Lu]Lu-DOTA-NAPamide, metal not drawn, reference compound] yielded a tissue uptake at 24 h ([1]; B16-F10 tumor uptake) of 0.16 ± 0.15 %ID/g, a tissue uptake at 24 h ([1]; fat uptake) of 0.01 ± 0.01 %ID/g and a tissue uptake at 24 h ([1]; heart uptake) of 0.01 %ID/g. The tissue uptake at 24 h ([1]; kidney uptake) was 1.85 ± 0.79 %ID/g, the tissue uptake at 24 h ([1]; liver uptake) was 0.24 ± 0.13 %ID/g and the tissue uptake at 24 h ([1]; lung uptake) was 0.04 ± 0.03 %ID/g. It also gave a tissue uptake at 24 h ([1]; small intestine uptake) of 0.01 ± 0.01 %ID/g and a tissue uptake at 24 h ([1]; spleen uptake) of 0.07 ± 0.04 %ID/g.

CCCC[C@H](NC(C)=O)C(=O)N[C@@H](CC(=O)O)C(=O)N[C@@H](Cc1c[nH]cn1)C(=O)N[C@H](Cc1ccccc1)C(=O)N[C@@H](CCCNC(=N)N)C(=O)N[C@@H](Cc1c[nH]c2ccccc12)C(=O)NCC(=O)N[C@@H](CCCCNC(=O)CN1CCN(CC(=O)O)CCN(CC(=O)O)CCN(CC(=O)O)CC1)C(N)=O [[^177Lu]Lu-DOTA-NAPamide] [metal not drawn, reference compound] gave a logP [2] of −2.6, a brain uptake ([3]; 24 h) of 0.00 ± 0.00 %ID/g and a muscle uptake ([3]; 24 h) of 0.00 ± 0.00 %ID/g.

Reference: PMC10536547, “Investigation of the Effect on the Albumin Binding Moiety for the Pharmacokinetic Properties of ^68Ga-, ^205/206Bi-, and ^177Lu-Labeled NAPamide-Based Radiopharmaceuticals” (Pharmaceuticals, 2023)
